The values below are quoted from earlier work in article PMC9638026.

What is called Kd is the equilibrium constant for the complex coming apart.

This data set deals with TIRR (Homo sapiens) (UniProt Q9BRJ7). Conditions: cited from earlier work.
Chain of TIRR (Homo sapiens) (Q9BRJ7 whole entry): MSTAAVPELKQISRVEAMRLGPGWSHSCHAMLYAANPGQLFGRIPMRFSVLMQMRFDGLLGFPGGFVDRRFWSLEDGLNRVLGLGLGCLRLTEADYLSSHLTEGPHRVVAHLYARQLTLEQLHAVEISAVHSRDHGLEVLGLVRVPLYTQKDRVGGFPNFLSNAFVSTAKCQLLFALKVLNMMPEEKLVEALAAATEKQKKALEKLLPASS

Chain of 53BP1 (Q12888 whole entry): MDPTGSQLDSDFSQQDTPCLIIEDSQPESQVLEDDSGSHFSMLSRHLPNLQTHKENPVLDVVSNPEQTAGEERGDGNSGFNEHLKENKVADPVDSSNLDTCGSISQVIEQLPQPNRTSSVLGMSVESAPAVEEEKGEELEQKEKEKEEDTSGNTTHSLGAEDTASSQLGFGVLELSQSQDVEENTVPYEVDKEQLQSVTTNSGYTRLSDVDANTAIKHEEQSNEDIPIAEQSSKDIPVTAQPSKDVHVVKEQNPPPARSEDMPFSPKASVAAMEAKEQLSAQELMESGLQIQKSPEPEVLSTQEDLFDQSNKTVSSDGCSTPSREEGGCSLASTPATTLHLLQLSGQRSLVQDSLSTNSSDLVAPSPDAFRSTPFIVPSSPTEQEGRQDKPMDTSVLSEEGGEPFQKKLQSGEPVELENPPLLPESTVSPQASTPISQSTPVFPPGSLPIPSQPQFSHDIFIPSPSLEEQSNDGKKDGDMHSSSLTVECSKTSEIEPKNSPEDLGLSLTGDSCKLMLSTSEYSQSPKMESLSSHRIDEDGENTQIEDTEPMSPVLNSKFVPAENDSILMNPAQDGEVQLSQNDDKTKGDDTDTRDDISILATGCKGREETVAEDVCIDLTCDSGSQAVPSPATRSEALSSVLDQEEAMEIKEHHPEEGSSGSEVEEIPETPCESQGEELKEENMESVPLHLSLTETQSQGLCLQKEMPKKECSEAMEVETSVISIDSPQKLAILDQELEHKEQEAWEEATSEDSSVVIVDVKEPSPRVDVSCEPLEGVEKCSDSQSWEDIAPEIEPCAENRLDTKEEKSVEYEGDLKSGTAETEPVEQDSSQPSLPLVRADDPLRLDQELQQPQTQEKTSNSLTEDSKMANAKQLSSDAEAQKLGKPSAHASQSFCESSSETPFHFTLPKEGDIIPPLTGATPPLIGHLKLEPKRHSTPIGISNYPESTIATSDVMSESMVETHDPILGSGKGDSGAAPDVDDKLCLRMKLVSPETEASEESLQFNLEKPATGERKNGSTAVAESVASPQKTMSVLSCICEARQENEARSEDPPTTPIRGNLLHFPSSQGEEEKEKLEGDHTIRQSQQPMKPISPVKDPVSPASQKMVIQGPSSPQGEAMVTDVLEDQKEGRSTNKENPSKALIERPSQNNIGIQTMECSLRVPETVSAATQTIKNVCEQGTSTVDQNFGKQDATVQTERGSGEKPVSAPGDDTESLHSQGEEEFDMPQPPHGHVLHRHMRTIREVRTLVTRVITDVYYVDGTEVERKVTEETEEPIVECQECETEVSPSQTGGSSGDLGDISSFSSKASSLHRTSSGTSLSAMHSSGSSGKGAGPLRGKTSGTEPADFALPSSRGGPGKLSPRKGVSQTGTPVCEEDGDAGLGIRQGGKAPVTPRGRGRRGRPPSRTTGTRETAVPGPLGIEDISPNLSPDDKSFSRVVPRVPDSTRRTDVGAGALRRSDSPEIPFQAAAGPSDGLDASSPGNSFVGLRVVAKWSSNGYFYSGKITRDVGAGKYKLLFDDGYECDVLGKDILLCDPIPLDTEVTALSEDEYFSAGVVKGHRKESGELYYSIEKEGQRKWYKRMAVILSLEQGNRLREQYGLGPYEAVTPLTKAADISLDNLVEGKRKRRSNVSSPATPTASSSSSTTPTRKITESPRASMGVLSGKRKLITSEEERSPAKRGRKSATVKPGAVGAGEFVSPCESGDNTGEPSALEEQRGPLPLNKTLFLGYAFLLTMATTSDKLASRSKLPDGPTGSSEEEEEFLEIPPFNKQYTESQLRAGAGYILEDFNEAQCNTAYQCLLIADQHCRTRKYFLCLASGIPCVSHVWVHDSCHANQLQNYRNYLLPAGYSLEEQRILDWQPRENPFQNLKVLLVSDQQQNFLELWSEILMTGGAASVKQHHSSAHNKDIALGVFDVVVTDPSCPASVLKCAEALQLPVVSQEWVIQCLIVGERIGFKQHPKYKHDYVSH

53BP1 (from UniProt Q12888): the Kd was 1000 nM.
